Laboratory results from US20060240474A1, “Peptides able to switch between two structural states and their use” (UNIVERSITY OF SUSSEX, priority 2002, published 2006).
Where a SMILES comes first, the peptide text is derived from it. Bridges are numbered along the chain shown (N, C = ends). Roman numbers before positions name the chains, in order. Where no end group is shown, it is not given here. The star is where a group is joined. Cam = NC(=O)C*

Assays:
[1] = Thermal unfolding followed by CD spectroscopy; type: physicochemical; settings: for midpoint of thermal unfolding transition, TM: FIG. 3B, concentration not given; for TM of the oxidised state: oxidised form; for TM of the oxidised state / TM of the reduced, dimeric form: ±2 for all three values; for thermal destabilisation compared with CSP-3o: oxidised forms; for thermal stability in words: comparator named in the value
Method: (§1) Circular dichroism spectroscopy. CD measurements were made using a JASCO J-715 spectropolarimeter fitted with a Peltier temperature controller. Peptide solutions were prepared in 25 mM potassium phosphate buffer at pH 7 and were examined in 1 mm or 1 cm quartz cuvettes (with stirring). Spectra were recorded at 5° C. using 1 nm intervals, a 1 nm bandwidth and 4 sec response time. Thermal unfolding curves were recorded through 1° C. min^−1 ramps using a 2 nm bandwidth, averaging the signal for 16 s every 1° C. intervals. After baseline correction, ellipticities in mdeg were converted to molar ellipticities (deg cm^2 dmol-res-^−1) by normalising for the concentration of peptide bonds.

[2] = Circular dichroism spectroscopy (helicity); type: physicochemical; settings: for helicity compared with other designs (CD signal at 222 nm): pH 7, comparator named in the value; for helix content judged by CD spectroscopy: pH 7, 5° C., 100 μM peptide (b86 prints 100 mM)
Method: as §1

[3] = target: the molecule itself; test: sedimentation equilibrium AUC, monomer-dimer fit, pH 7, 5 C (homodimerisation)
Method: Sedimentation equilibrium experiments were conducted at 5° C. in a Beckman-Optima XL-I analytical ultracentrifuge fitted with an An-60 Ti rotor. A […] peptide solution at […] in 25 mM K phosphate buffer pH 7 containing 0.1 M KCl was equilibrated for 48 h at speeds of 40 000, 47 500/50 000 and 55 000/60 000 rpm. Data were fitted simultaneously assuming either a single ideal species or a monomer-dimer equilibrium and fixed monomer molecular weight, using routines in the Beckman-Optima XL-A/XLI-I data analysis software (v4.0). The molecular weights (Table 2) and partial specific volumes (range 0.7417 to 0.7461) of the peptides were calculated from their amino-acid sequences, and the viscosity of the buffer at 5° C. was taken to be […].

CGGEIRALKYEIARLKQAKQAEIRALKQEIAALKGGC [CSP-4r]
thermal stability higher than CSP-3r by ([1]; reduced forms): ~8 °C

CGGEIRALKYEIARLKQAKQAKIRALEQKIAALEGGC [CSP-3r]
helicity compared with other designs (CD signal at 222 nm) [2]: approximate three-fold improvement in helicity over CSP-2r
midpoint of thermal unfolding transition, TM [1]: 40±2 °C

CC[C@H](C)[C@H](NC(=O)[C@H](CCCCN)NC(=O)[C@H](CCC(N)=O)NC(=O)[C@H](CCC(=O)O)NC(=O)[C@H](CC(C)C)NC(=O)[C@H](C)NC(=O)[C@H](CCCNC(=N)N)NC(=O)[C@@H](NC(=O)[C@H](CCCCN)NC(=O)[C@H](C)NC(=O)[C@H](CCC(N)=O)NC(=O)[C@H](C)NC(=O)[C@H](C)NC(=O)[C@H](CCC(N)=O)NC(=O)[C@H](CCCCN)NC(=O)[C@H](CC(C)C)NC(=O)[C@H](CCCNC(=N)N)NC(=O)[C@H](C)NC(=O)[C@@H](NC(=O)[C@H](CCC(=O)O)NC(=O)[C@H](Cc1ccc(O)cc1)NC(=O)[C@H](CCCCN)NC(=O)[C@H](CC(C)C)NC(=O)[C@H](C)NC(=O)[C@H](CCCNC(=N)N)NC(=O)[C@@H](NC(=O)[C@H](CCC(=O)O)NC(=O)CNC(=O)CNC(=O)[C@@H](N)CS)[C@@H](C)CC)[C@@H](C)CC)[C@@H](C)CC)C(=O)N[C@@H](C)C(=O)N[C@@H](C)C(=O)N[C@@H](CC(C)C)C(=O)N[C@@H](CCC(=O)O)C(=O)NCC(=O)NCC(=O)N[C@@H](CS)C(=O)O [CSP-6] (H-CGGEIRALKYEIARLKQAAQAKIRALEQKIAALEGGC-OH; N-terminus and C-terminus assumed)
TM of the oxidised state [1]: 47 °C
TM of the reduced, dimeric form [1]: 75 °C

CGGKIRALEYKIARLEQAKQAKIRALEQKIAALEGGC [CSP-5o] (disulfide 1-37)
helicity compared with other designs (CD signal at 222 nm) [2]: marginally less helical than the parent, CSP-3o
thermal destabilisation compared with CSP-3o [1]: ~20 °C

CGGEIRALKYEIARLKQGGGGKKRALEQKIAALEGGC [CSP-2o] (disulfide 1-37)
helix content judged by CD spectroscopy [2]: ~40%
helicity compared with other designs (CD signal at 222 nm) [2]: approximately double the helical signal ([θ]222) of the parent peptide
midpoint of thermal unfolding transition, TM [1]: 40±2 °C

CGGEIRALKYEIARLKQAAQAKKRALEQKIAALEGGC [CSP-7r]
helicity compared with other designs (CD signal at 222 nm) [2]: compromised both the helicity and the thermal stability
thermal stability in words [1]: compromised both the helicity and the thermal stability

CGGKIRALEYKIARLEQAKQAKIRALEQKIAALEGGC [CSP-5r]
thermal stability lower than the parent (CSP-3r) by ([1]; reduced forms): 12 °C

CGGEIRALKYEIARLKQ----KKRALEQKIAALEGGC [CSP-1o] (disulfide I:1-II:16; not fully specified)
helix content judged by CD spectroscopy [2]: 20%
thermal stability in words [1]: changed little upon heating

CGGEIRALKYEIARLKQ----KKRALEQKIAALEGGC [CSP-1r] (not fully specified (some residues); cysteine pairing not given here)
helix content judged by CD spectroscopy [2]: 90%
transition midpoint, TM ([1]; 10 mM sample (so in the source)): 50 °C
transition midpoint, TM ([1]; 100 mM peptide (so in the source)): 62 °C

CGGEIRALKYEIARLKQAKQAEIRALKQEIAALKGGC [CSP-4o] (disulfide 1-37)
helicity compared with other designs (CD signal at 222 nm) [2]: marginally less helical than the parent, CSP-3o
thermal destabilisation compared with CSP-3o [1]: ~20 °C

CGGEIRALKYEIARLKQAAQAKKRALEQKIAALEGGC [CSP-7o] (disulfide 1-37)
thermal stability in words [1]: affected less

CGGEIRALKYEIARLKQAAQAKIRALEQKIAALEGGC [CSP-6r]
helicity compared with other designs (CD signal at 222 nm) [2]: significantly increased over the other hendecad-containing designs CSP-2r and CSP-3r
TM ([1]; 10 μM peptide): 61±2 °C
thermal stability in words [1]: significantly increased over the other hendecad-containing designs CSP-2r and CSP-3r

CC[C@H](C)[C@H](NC(=O)[C@H](CCCCN)NC(=O)[C@H](CCC(N)=O)NC(=O)[C@H](CCC(=O)O)NC(=O)[C@H](CC(C)C)NC(=O)[C@H](C)NC(=O)[C@H](CCCNC(=N)N)NC(=O)[C@@H](NC(=O)[C@H](CCCCN)NC(=O)[C@H](C)NC(=O)[C@H](CCC(N)=O)NC(=O)[C@H](CCCCN)NC(=O)[C@H](C)NC(=O)[C@H](CCC(N)=O)NC(=O)[C@H](CCCCN)NC(=O)[C@H](CC(C)C)NC(=O)[C@H](CCCNC(=N)N)NC(=O)[C@H](C)NC(=O)[C@@H](NC(=O)[C@H](CCC(=O)O)NC(=O)[C@H](Cc1ccc(O)cc1)NC(=O)[C@H](CCCCN)NC(=O)[C@H](CC(C)C)NC(=O)[C@H](C)NC(=O)[C@H](CCCNC(=N)N)NC(=O)[C@@H](NC(=O)[C@H](CCC(=O)O)NC(=O)CNC(=O)CNC(=O)[C@@H](N)CS)[C@@H](C)CC)[C@@H](C)CC)[C@@H](C)CC)C(=O)N[C@@H](C)C(=O)N[C@@H](C)C(=O)N[C@@H](CC(C)C)C(=O)N[C@@H](CCC(=O)O)C(=O)NCC(=O)NCC(=O)N[C@@H](CS)C(=O)O [CSP-3] (H-CGGEIRALKYEIARLKQAKQAKIRALEQKIAALEGGC-OH; N-terminus and C-terminus assumed)
TM of the oxidised state [1]: 50 °C
TM of the reduced, dimeric form [1]: 40 °C

CC[C@H](C)[C@H](NC(=O)[C@H](CCCCN)NC(=O)[C@H](CCC(N)=O)NC(=O)[C@H](CCC(=O)O)NC(=O)[C@H](CC(C)C)NC(=O)[C@H](C)NC(=O)[C@H](CCCNC(=N)N)NC(=O)[C@H](CCCCN)NC(=O)[C@H](CCCCN)NC(=O)[C@H](C)NC(=O)[C@H](CCC(N)=O)NC(=O)[C@H](C)NC(=O)[C@H](C)NC(=O)[C@H](CCC(N)=O)NC(=O)[C@H](CCCCN)NC(=O)[C@H](CC(C)C)NC(=O)[C@H](CCCNC(=N)N)NC(=O)[C@H](C)NC(=O)[C@@H](NC(=O)[C@H](CCC(=O)O)NC(=O)[C@H](Cc1ccc(O)cc1)NC(=O)[C@H](CCCCN)NC(=O)[C@H](CC(C)C)NC(=O)[C@H](C)NC(=O)[C@H](CCCNC(=N)N)NC(=O)[C@@H](NC(=O)[C@H](CCC(=O)O)NC(=O)CNC(=O)CNC(=O)[C@@H](N)CS)[C@@H](C)CC)[C@@H](C)CC)C(=O)N[C@@H](C)C(=O)N[C@@H](C)C(=O)N[C@@H](CC(C)C)C(=O)N[C@@H](CCC(=O)O)C(=O)NCC(=O)NCC(=O)N[C@@H](CS)C(=O)O [CSP-7] (H-CGGEIRALKYEIARLKQAAQAKKRALEQKIAALEGGC-OH; N-terminus and C-terminus assumed)
TM of the oxidised state [1]: 53±2 °C
TM of the reduced, dimeric form [1]: 34±2 °C

CGGEIRALKYEIARLKQGGGGKKRALEQKIAALEGGC [CSP-2r]
helix content judged by CD spectroscopy [2]: ~20%
midpoint of thermal unfolding transition, TM [1]: 22±2 °C

B1: CSP-7r (reduced and alkylated) (peptide)
peptide: C(Cam)GGEIRALKYEIARLKQAAQAKKRALEQKIAALEGGC(Cam)
notes: CSP-6 with the Ile at the a site after the hendecad unit replaced by Lys; also called design iteration 7, reduced & alkylated; CSP-8a (Maya's nomenclature)
Kd [3]: 506 µM

B2: CSP-4r (reduced and alkylated) (peptide)
peptide: C(Cam)GGEIRALKYEIARLKQAKQAEIRALKQEIAALKGGC(Cam)
notes: Anagram mutant of CSP-3 with all g:e pairs Glu:Lys; also called design iteration 4, reduced & alkylated; CSP-5a (Maya's nomenclature)
Kd [3]: 77 µM

B3: CSP-5r (reduced and alkylated) (peptide)
peptide: C(Cam)GGKIRALEYKIARLEQAKQAKIRALEQKIAALEGGC(Cam)
notes: Anagram mutant of CSP-3 with all g:e pairs Lys:Glu; also called design iteration 5, reduced & alkylated; CSP-6a (Maya's nomenclature)
Kd [3]: 72 µM

B4: CSP-1r (Coiled-coil-Switch Peptide-1, reduced and alkylated) (peptide)
peptide: C(Cam)GGEIRALKYEIARLKQKKRALEQKIAALEGGC(Cam)
notes: Synthetic designed peptide; The entry is the monomer chain; the KD is for its monomer-dimer equilibrium (parallel coiled-coil homodimer); also called design iteration 1, reduced & alkylated; CSP-2a (Maya's nomenclature)
Kd [3]: 33 µM

B5: CSP-6r (reduced and alkylated) (peptide)
peptide: C(Cam)GGEIRALKYEIARLKQAAQAKIRALEQKIAALEGGC(Cam)
notes: CSP-3 with the Lys at the h position replaced by Ala; also called design iteration 6, reduced & alkylated; CSP-7a (Maya's nomenclature)
Kd [3]: 34 µM

B6: CSP-3r (reduced and alkylated) (peptide)
peptide: C(Cam)GGEIRALKYEIARLKQAKQAKIRALEQKIAALEGGC(Cam)
notes: The entry is the monomer chain; the KD is for its monomer-dimer equilibrium; also called CSP-3a; design iteration 3, reduced & alkylated
Kd [3]: 191 µM
